Assay results as given in article PMC9168760, “A novel AMPK activator shows therapeutic potential in hepatocellular carcinoma by suppressing HIF1α‐mediated aerobic glycolysis” (Molecular Oncology, 2022).

Biological target: T1, hypoxia‐inducible factor 1‐alpha (human (endogenous in PLC5), UniProt Q16665 1-826)
T1 construct: HIF1α, endogenous protein of human HCC cells, immunoprecipitated or blotted with HIF1α antibodies; also called HIF1α
Assay: co-IP; cells treated with DMSO or SCT‐1015; immunoprecipitation with HIF1α antibodies, blot for PHD3; 400 μg whole‐cell extract, 4 μg antibody overnight at 4 °C, protein A/G magnetic beads
Details: partners not purified

T1 sequence (Q16665 whole entry): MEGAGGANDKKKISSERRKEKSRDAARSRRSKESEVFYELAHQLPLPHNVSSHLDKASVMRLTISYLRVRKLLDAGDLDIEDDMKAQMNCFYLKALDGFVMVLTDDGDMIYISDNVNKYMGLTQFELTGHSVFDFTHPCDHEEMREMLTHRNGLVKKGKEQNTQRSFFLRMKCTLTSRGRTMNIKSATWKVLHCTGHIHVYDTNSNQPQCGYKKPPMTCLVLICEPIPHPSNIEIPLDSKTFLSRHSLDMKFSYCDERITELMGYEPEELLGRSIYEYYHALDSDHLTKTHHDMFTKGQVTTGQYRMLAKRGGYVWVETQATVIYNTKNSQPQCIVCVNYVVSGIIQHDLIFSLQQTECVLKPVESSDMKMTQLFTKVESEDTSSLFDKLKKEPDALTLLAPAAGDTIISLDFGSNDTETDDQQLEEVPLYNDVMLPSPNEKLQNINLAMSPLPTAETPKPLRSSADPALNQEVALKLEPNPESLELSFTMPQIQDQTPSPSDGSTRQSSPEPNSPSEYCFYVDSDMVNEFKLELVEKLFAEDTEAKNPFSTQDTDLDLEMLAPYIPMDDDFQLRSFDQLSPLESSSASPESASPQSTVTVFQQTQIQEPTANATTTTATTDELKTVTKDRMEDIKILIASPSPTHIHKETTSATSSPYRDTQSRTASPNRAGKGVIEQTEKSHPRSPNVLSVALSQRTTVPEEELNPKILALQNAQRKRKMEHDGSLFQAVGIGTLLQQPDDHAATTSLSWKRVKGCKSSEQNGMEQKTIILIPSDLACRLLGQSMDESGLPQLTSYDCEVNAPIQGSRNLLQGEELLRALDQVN

fold change of the ratio PHD3/HIF1α in the HIF1α immunoprecipitate, SCT‐1015 against DMSO: 1.6 fold
B1: prolyl hydroxylase 3 (enzyme, human (endogenous in HCC cells), UniProt Q9H6Z9 1-239, looked up)
chain: MPLGHIMRLDLEKIALEYIVPCLHEVGFCYLDNFLGEVVGDCVLERVKQLHCTGALRDGQLAGPRAGVSKRHLRGDQITWIGGNEEGCEAISFLLSLIDRLVLYCGSRLGKYYVKERSKAMVACYPGNGTGYVRHVDNPNGDGRCITCIYYLNKNWDAKLHGGILRIFPEGKSFIADVEPIFDRLLFFWSDRRNPHEVQPSYATRYAMTVWYFDAEERAEAKKKFRNLTRKTESALTED
notes: PHD3, endogenous protein detected with the PHD3 antibody (Abcam ab30782) in HIF1α immunoprecipitates; also called PHD3; PHD
